The DeepSol protein solubility set

Test: soluble on expression in E. coli; label from the status in PepcDB or PDB records

Row | Sequence | soluble on expression in E. coli
1 | MAVEDEGLRVFQSVKIKIGEAKNLPSYPGPSKMRDCYCTVNLDQEEVFRTKIVEKSLCPFYGEDFYCEIPRSFRHLSFYIFDRDVFRRDSIIGKVAIQKEDLQKYHNRDTWFQLQHVDADSEVQGKVHLELRLSEVITDTGVVCHKLATRIVECQGLPIVNGQCDPYATVTLAGPFRSEAKKTKVKRKTNNPQFDEVFYFEVTRPCSYSKKSHFDFEEEDVDKLEIRVDLWNASNLKFGDEFLGELRIPLKVLRQSSSYEAWYFLQPRDNGSKSLKPDDLGSLRLNVVYTEDHVFSSDYYSPLRDLLLKSADVEPVSASAAHILGEVCREKQEAAVPLVRLFLHYGRVVPFISAIASAEVKRTQDPNTIFRGNSLASKCIDETMKLAGMHYLHVTLKPAIEEICQSHKPCEIDPVKLKDGENLENNMENLRQYVDRVFHAITESGVSCPTVMCDIFFSLREAAAKRFQDDPDVRYTAVSSFIFLRFFAPAILSPNLFQLTPHHTDPQTSRTLTLISKTVQTLGSLSKSKSASFKESYMATFYEFFNEQKYADAVKNFLDLISSSGRRDPKSVEQPIVLKEGFMIKRAQGRKRFGMKNFKKRWFRLTNHEFTYHKSKGDQPLYSIPIENILAVEKLEEESFKMKNMFQVIQPERALYIQANNCVEAKDWIDILTKVSQCNQKRLTVYHPSAYLSGHWLCCRAPSDSAPGCSPCTGGLPANIQLDIDGDRETERIYSLFNLYMSKLEKMQEACGSKSVYDGPEQEEYSTFVIDDPQETYKTLKQVIAGVGALEQEHAQYKRDKFKKTKYGSQEHPIGDKSFQNYIRQQSETSTHSI | soluble
2 | MKWSSMLKVSAISLSVFTAVSAKAQLGEPEIEDLKFGFIKLTDMAPLAVAYEKGFFEDEGLYVTLEAQANWKVLLDRVIDGELDGAHMLAGQPLGATIGVGTKAEVITAFSMDLNGNAITVSNDTWEQMKPHIPKQPDGKPVHPIKADSLKPVVDSYRDKGKSFNMGMVFPVSTHNYELRYWLAAGGIHPGFYAPDSGDNSGQLDADVLLSVTPPPQMPATMEAGTIKGYCVGEPWNQQAVFKGIGTPVVTDYEIWKNNPEKVFGVSKAWAEKNPNTHIRVVKALIRAAHWLDENSNANRQEAVKMLAKSEYVGADADVIANSMTGTFEYEKGDKRDVPDFNVFFRHNATYPYYSDAIWYLTQMRRWGQISSEKSDDWYMDVAKEVYRPDIYQQAAQALIEDGVLSKKDFPDFSAEDGFRPPQTHFIDNIVYDGREPNKYLEKFSIGLKGKDKVMAGDPLEHHHHHH | soluble
3 | SRKVFVGGLPPDIDEDEITASFRRFGPLVVDWPHKAESKSYFPPKGYAFLLFQEESSVQALIDACLEEDGKLYLCVSSPTIKDKPVQIRPWNLSDSDFVMD | soluble
4 | MPKTEDKYLPLMSKEKIEKALAFHKSFPQYSETPLAELNHMAAYLGLNDFFVKDESYRFGLNAFKVLGGSFAMANYIAEKLKKDVSELTYDELTSDQLRSAFGQATFFTATDGNHGRGVAWAANKLGQKSVVLMPKGSTQTRKENIEKEGATVTIEEVNYDECVRMANKMAEETENGVMVQDTAWDGYEKIPTWIMQGYGTMALEASQQLRKFGSERPSHVFVQAGVGSLAGAVIGYFANAFPENPPIMVVVEAQAADCLYQSAIKKDGEIRFVDGDLQTIMAGLACGEPNTISFDILKNHTSFFVSAPDWVSEKGMRMLGAPLKGDPQVVSGESGAVAMGLVATVMQDPDYQELHEALQLDETSNVLMFSTEGDTDPDNYKKILWR | not soluble
5 | MSKPIEIEIRRAPVLGSSMAYRETGAQDAPVVLFLHGNPTSSHIWRNILPLVSPVAHCIAPDLIGFGQSGKPDIAYRFFDHVRYLDAFIEQRGVTSAYLVAQDWGTALAFHLAARRPDFVRGLAFMEFIRPMPTWQDFHHTEVAEEQDHAEAARAVFRKFRTPGEGEAMILEANAFVERVLPGGIVRKLGDEEMAPYRTPFPTPESRRPVLAFPRELPIAGEPADVYEALQSAHAALAASSYPKLLFTGEPGALVSPEFAERFAASLTRCALIRLGAGLHYLQEDHADAIGRSVAGWIAGIEAVRPQLAAVD | soluble
6 | MGSDKIHHHHHHMTQQTIYHIGTPGTPWGATEKAQWLAEQTKKRSYFDDVVSKIETFKSDFDVDQYGELAYDSGTYPLFVVRTKNWDDSKPTVLVTGGVHGYETSGVHGALRFIETKAKDYQPHFNVVVAPCLSPWGYETINRWNPAAIDPNRSFVADSPAGECAHIMNYVAGLGVDILAHIDLHETTDTDNSEFRPAKAAMDGKVNTNWNIPDGFYLVGNSEKPYPEFQKAVLDSVEEVTHIADADDENKLIGEDIAQRGVILLPTAKMGLCISFSKAEYATTTEVYPDSPKATPEQCIQAQVAAVTGGLDFLK | not soluble
7 | MEETSMGKLSICRQNVPMKSMPSRLPKIDQAGVARRLEALRDALGLDKGEFAQSFGLDPSSYSKVLQGKKPLKSEYGHAIAEGWGVSMDFIYRGDMSRIDETLRTKVMQNLTAPMR | not soluble
8 | MRVKAMASFSPFDVTLWYSTAAPAPLTEPLSGRIQADVCIVGAGYTGLTTALELAKAGVDVVLLERQEIGFGGSGRNAGHCTPTFTHYSLPELRKMLGETWAERLIERQTRANDRVSHMIRDYRINCEWVQNGYVMGAPHKGAIEEIRRKVETYNAVGAKTRLLGRDEVAAITGSPRFHGGWLHEEAGHLNPLAYARGLGGAVIQERGRIFTGSSVTGCERNATGGWKVRTEHGEVIASKVIFTTGAYTVGGWPKLDQTFKIQRVFVAATQILSEETRRTVLPRNTTIHDGRGDIYVYKYNAEGRIVASMFPMGRRGRDIVYTRQVMSDRLKWLHPQISADIRWDYFWFGELDMQYRTVPRLYDLSPGVVALTGLSGRGVPTGSMLGSILSEWALGKPENELALKVEPLKSAPFYMSFAPAMTLRYYRMRDNIATRLAGMELPPHALEHHHHHH | not soluble
9 | MSLESIQSSLKHMTGNRSFEKQFTQLKEAVFRSPHVQLFLEEHPSLSPITLEQGLSKLYEYQKEQSHCAHCPGLQKCPNLMKGYQPTLYVERDSLELSYSPCPLKEEEEREKKKRSLIRSLYIPKEILEAKFDDVESEPGRSIASHRALEFALSAKPGEDGMGLYLYGKFGVGKTFLMGAIANELKDRGIDSTIVYVPDFFRELKQSIGDGTFQQKLDFVKNAQVLIFDDIGAETMTSWVRDDVLGVILQYRIMEKLPTLFTSNYDYDELEEHLAYNDKSGTELLKAKRVMERIRHYTVSVMVQGQNRREHQSEGHHHHHH | soluble
10 | MASVTFSVPKGFTEFSGLRSSSASLPFGKKLSSDEFVSIVSFQTSAMGSSGGYRKGVTEAKLKVAINGFGRIGRNFLRCWHGRKDSPLDIIAINDTGGVKQASHLLKYDSTLGIFDADVKPSGETAISVDGKIIQVVSNRNPSLLPWKELGIDIVIEGTGVFVDREGAGKHIEAGAKKVIITAPGKGDIPTYVVGVNADAYSHDEPIISNASCTTNCLAPFVKVLDQKFGIIKGTMTTTHSYTGDQRLLDASHRDLRRARAAALNIVPTSTGAAKAVALVLPNLKGKLNGIALRVPTPNVSVVDLVVQVSKKTFAEEVNAAFRDSAEKELKGILDVCDEPLVSVDFRCSDFSTTIDSSLTMVMGDDMVKVIAWYDNEWGYSQRVVDLADIVANNWK | soluble
11 | AQYEDGKQYTTLEKPVAGAPQVLEFFSFFCGHAYQFEEVLHISDNVKKKLPEGVKMTKYHVNFMGGDLGKDLTQAWAVAMALGVEDKVTVPLFEGVQKTQTIRSASDIRDVFINAGIKGEEYDAAWNSFVVKSLVAQQEKAAADVQLRGVPAMFVNGKYQLNPQGMDTSNMDVFVQQYADTVKYLSEKK | soluble
12 | QTSAVQQKLAALEKSSGGRLGVALIDTADNTQVLYRGDERFPMCSTSKVMAAAAVLKQSETQKQLLNQPVEIKPADLVNYNPIAEKHVNGTMTLAELSAAALQYSDNTAMNKLIAQLGGPGGVTAFARAIGDETFRLDRTEPTLNTAIPGDPRDTTTPRAMAQTLRQLTLGHALGETQRAQLVTWLKGNTTGAASIRAGLPTSWTAGDKTGSGDYGTTNDIAVIWPQGRAPLVLVTYFTQPQQNAESRRDVLASAARIIAEGL | soluble
13 | MRVARLFRFPVKGFPAEEIPEADVRTGRGIRGDRVAAFTNGSLDIPDDSWHRYSAFTVLKNDTDLQKWQVELDLAEAADSSQPAVADPSATVTLTSPQNETTTFRTDDRDTRATSADFLSARIPPQGDFPRALSVADQGMFDSQAAGVSIINPATVAAISQTADGQAALAPGETELDPLRFRGNVLVDGLAPFEEFALIGKIVRLGGVRLAITQAIERCPATTVNPTTTAVDVNVPRVLASACGHLHCGVYGRILESGLVSTGDEIEIEGDAPRELVKTARTPRFMTVLGSQQICNDIVEVSLRDDQGWIREFDEPGTNLRVHLDLGEPFWRTYTITDVSDDIVSIAVRTQGKGSRAVAELAAGQSVLASGPHGTMTANRVFGGTTALVTAGIGITPSLGLMRGAELSGTEKIKLFHVDRDHRTACLWDRLQKRAHSRQIPVETHHRDTASQGRPGHADLVDWLAGCDNVMVCGPADFTRAVLDASAEAGVPAVHQEIFASPNTGMSEAIAQCSPAEVTLENSGTSFLWEPQQGTLLEALEARGLRADNSCRGGSCGTCAVSLAAGSVIYPVEPAARIAADEVLVCSAVPSGPISLGILEHHHHHH | not soluble
14 | MHLPQMGYDRAITVFSPDGRLFQVEYAREAVKRGATAIGIKCKEGVILIADKRVGSKLLEKDTIEKIYKIDEHICAATSGLVADARVLIDRARIEAQINRLTYDIPITVKELAKKICDFKQQYTQYGGVRPFGVSLLIAGVNEVPKLYETDPSGALLEYKATAIGMGRMAVTEFFEKEYRDDLSFDDAMVLGLVAMGLSIESELVPENIEVGYVKVDDRTFKEVSPEELKPYVERANERIRELLKK | soluble
15 | MKFIIKLFPEITIKSQSVRLRFIKILTGNIRNVLKHYDETLAVVRHWDNIEVRAKDENQRLTIRDALTRIPGIHHILEVEDVPFTDMHDIFEKALVQYRDQLDGKTFCVRVKRRGKHDFSSIDVERYVGGGLNQHIESARVKLTNPDVTVHLEVEDDRLLLIKGRYEGIGGFPIGTQEDVLSLISGGFDSGVSSYMLMRRGCRVHYCFFNLGGAAHEIGVRQVAHYLWNRFGSSHRVRFVAINFEPVVGEILEKIDDGQMGVILKRMMVRAASKVAERYGVQALVTGEALGQVSSQTLTNLRLIDNVSDTLILRPLISYDKEHIINLARQIGTEDFARTMPEYCGVISKSPTVKAVKSKIEAEEEKFDFSILDKVVEEANNVDIREIAQQTGQEVVEVETVNDFGPNDVILDIRSVDEQEDKPLKVEGIDVVSLPFYKLSTKFGDLDQNRTWLLWCERGVMSRLQALYLREQGFKNVKVYRP | not soluble
16 | MSNVKHSKLLILGSGPAGYTAAVYAARANLKPVLVTGMQQGGQLTTTTEVENWPGDAEGLTGPALMERMKEHAERFDTEIVFDHINSVDLSSRPFRLTGDSQEYTCDALIISTGASAKYLGLESEEAFKGRGVSACATCDGFFYRNQKVAVVGGGNTAVEEALYLSNIASEVHLVHRRDSFRSEKILIDRLMDKVANGNIVLHTHRTLDEVLGDEMGVTGVRLKDTQSDMTENLDVMGVFIAIGHQPNSQIFEGQLEMKNGYIVVKSGLEGNATQTSIEGVFAAGDVMDHNYRQAITSAGTGCMAALDAERYLDSQGK | soluble
17 | MTTGTEEARIPLDPFVTDLDGESARLRAAGPLAAVELPGGVPVWAVTHHAEAKALLTDPRLVKDINVWGAWRRGEIPADWPLIGLANPGRSMLTVDGAEHRRLRTLVAQALTVRRVEHMRGRITELTDRLLDELPADGGVVDLKAAFAYPLPMYVVADLMGIEEARLPRLKVLFEKFFSTQTPPEEVVATLTELASIMTDTVAAKRAAPGDDLTSALIQASENGDHLTDAEIVSTLQLMVAAGHETTISLIVNAVVNLSTHPEQRALVLSGEAEWSAVVEETLRFSTPTSHVLIRFAAEDVPVGDRVIPAGDALIVSYGALGRDERAHGPTADRFDLTRTSGNRHISFGHGPHVCPGAALSRMEAGVALPALYARFPHLDLAVPAAELRNKPVVTQNDLFELPVRLAHHHH | soluble
